Substitutions are numbered along the chain they refer to.
What was measured:
[1] = molecular target: T1, Myo2-GTD (globular tail domain of Myo2) (Saccharomyces cerevisiae (strain S288c), UniProt P19524 1152-1574); experiment: ITC
T1 chain: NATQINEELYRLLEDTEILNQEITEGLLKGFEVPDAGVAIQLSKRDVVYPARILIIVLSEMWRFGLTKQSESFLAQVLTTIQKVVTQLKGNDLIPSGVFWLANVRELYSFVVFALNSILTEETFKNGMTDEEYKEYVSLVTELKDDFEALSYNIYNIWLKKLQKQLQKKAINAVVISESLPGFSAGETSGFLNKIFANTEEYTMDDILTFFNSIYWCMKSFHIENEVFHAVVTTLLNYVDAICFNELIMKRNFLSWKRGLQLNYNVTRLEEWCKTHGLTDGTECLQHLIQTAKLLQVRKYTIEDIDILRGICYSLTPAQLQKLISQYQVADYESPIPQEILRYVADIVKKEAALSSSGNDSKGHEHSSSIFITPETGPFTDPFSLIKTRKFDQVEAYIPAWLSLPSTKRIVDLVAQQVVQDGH

Myo2-GTD Y1303A = molecular target: T2, Myo2-GTD Y1303A (Saccharomyces cerevisiae); experiment: ITC
T2 chain: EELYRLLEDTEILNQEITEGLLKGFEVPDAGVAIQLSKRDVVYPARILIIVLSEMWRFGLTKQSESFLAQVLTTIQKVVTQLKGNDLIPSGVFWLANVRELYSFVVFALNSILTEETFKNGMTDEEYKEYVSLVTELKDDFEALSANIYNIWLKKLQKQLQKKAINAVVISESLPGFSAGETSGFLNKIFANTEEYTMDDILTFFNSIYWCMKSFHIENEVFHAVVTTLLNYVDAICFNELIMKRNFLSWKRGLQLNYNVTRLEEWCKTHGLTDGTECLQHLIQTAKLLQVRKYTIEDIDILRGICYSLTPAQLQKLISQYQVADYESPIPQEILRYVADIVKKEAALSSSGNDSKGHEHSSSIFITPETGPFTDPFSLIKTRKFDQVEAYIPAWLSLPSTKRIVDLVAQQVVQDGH

Myo2-GTD D1297N = molecular target: T3, Myo2-GTD D1297N (Saccharomyces cerevisiae); experiment: ITC
T3 chain: T2 chain with D140N, A146Y

[2] = molecular target: T4, Myo2-GTD (globular tail domain of Myo2) (Saccharomyces cerevisiae (strain S288c), UniProt P19524 1152-1574); experiment: ITC; 500 μM Myo2-GTD in the syringe titrated into 50 μM Kar9-MIS or Pea2-MIS in the cell, 25 °C; one-site binding model; details: both partners purified
T4 construct: Myo2 (class V myosin), S. cerevisiae, C-terminal globular tail domain (GTD); Named Trx-Myo2-GTD in the light scattering experiment; also called Trx-Myo2-GTD; source: E. coli BL21(DE3), purified (Ni2+-NTA, size exclusion chromatography); not shown: Trx, N-terminal, kept
T4 sequence (looked up): T1 chain

Myo2-GTD L1331S = molecular target: T5, Myo2-GTD L1331S (Saccharomyces cerevisiae (strain S288c)); experiment: ITC
T5 chain: T2 chain with A146Y, L174S

Myo2-GTD W1407A = molecular target: T6, Myo2-GTD W1407A (Saccharomyces cerevisiae (strain S288c)); experiment: ITC
T6 chain: T2 chain with A146Y, W250A

[3] = molecular target: T4, Myo2-GTD (globular tail domain of Myo2); experiment: ITC; 200 μM Vac17-MIS in the syringe titrated into 20 μM Myo2-GTD in the cell, 25 °C; one-site binding model; details: both partners purified

B1: GST-Pea2-CC1 (GST-tagged Pea2-CC1; dimer) (domain or fragment)
chain: AIQEEDSSKKLEELETAFSDLQLAHNFLTKQFENDRAEYVQDIEKLTRTNRELQDKLLNNHSNLSKTEKKLHELEQENKELEKANNKLNSSRH
modifications: N-terminal GST (pGEX-4T-1) left out; GST drives the dimerization
- Kd [1]: 11 µM
- Kd (Myo2-GTD Y1303A): 11 µM
- Kd (Myo2-GTD D1297N): 10 µM

B2: Pea2-CC1 (Trx-tagged; monomer) (domain or fragment, Saccharomyces cerevisiae (strain S288c), UniProt P40091 235-327, looked up)
chain: B1 chain
notes: Pea2 (polarisome subunit), S. cerevisiae, conserved coiled coil CC1 containing residues 235-327; Named Trx-tagged in the light scattering; also called Trx-tagged Pea2-CC1; Pea2-CC1 monomer; source: E. coli BL21(DE3), purified (Ni2+-NTA, size exclusion chromatography); not shown: Trx, N-terminal, kept
- Kd [2]: ~50 µM

B3: Vac17-MIS (Myo2-interacting sequence of Vac17) (domain or fragment, Saccharomyces cerevisiae (strain S288c), UniProt P25591 112-157, looked up)
chain: PNEAPNDSPQSQSTRSSLGSFQPRPLKIIERQRLCMVTPSKPPKKS
notes: Vac17 (vacuole-related protein 17), S. cerevisiae, region containing residues 112-157 (MIS); Named Trx-tagged in the light scattering; also called Trx-Vas17-MIS; Vac17-MIS wild-type; source: E. coli BL21(DE3), purified (Ni2+-NTA, size exclusion chromatography); not shown: Trx, N-terminal, kept
- Kd (Myo2-GTD L1331S): 0.41 µM
- Kd (Myo2-GTD W1407A): 0.45 µM
- Kd [3]: ~0.3 µM
